Key:
[1] = target: T1, CTLA4 (antigen of Examples 10 and 13) (UniProt P16410 36-161, limits assumed); experiment: BLI (Octet); antigen immobilised, B-Body as analyte
T1 construct: Immobilised antigen in the Octet assay
Description: In each instance, the antigen is immobilized and the B-Body is the analyte.

[2] = target: T2, mouse CTLA4 (target of muSNIPER and anti-muCTLA4) (mouse, UniProt P09793 36-161, limits assumed, biotinylated in the blocking assay); experiment: monovalent affinity, summary in Table 29 (text: biolayer interferometry; data not shown); monovalent, CTLA4 alone
T2 construct: also called Target 2
T2 sequence (P09793 36-161 limits assumed): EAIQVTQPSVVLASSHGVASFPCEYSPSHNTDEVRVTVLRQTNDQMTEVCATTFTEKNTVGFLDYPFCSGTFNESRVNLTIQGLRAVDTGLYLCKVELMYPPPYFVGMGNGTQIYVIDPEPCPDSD

[3] = target: T3, mouse CD25 + CTLA4 together (Table 29) (mouse, UniProt P01590 22-236; P09793 36-161, limits assumed); experiment: bivalent affinity to both CD25 and CTLA4, summary in Table 29; bivalent, CD25 + CTLA4 together
T3 construct: the format is not described
T3 sequence (P09793 36-161 limits assumed, one chain of several): as the sequence (P09793 36-161 limits assumed) above

[4] = target: T4, mouse CD25 (target of muSNIPER in Table 29) (mouse, UniProt P01590 22-236, limits assumed); experiment: monovalent affinity, summary in Table 29 (text: biolayer interferometry; data not shown); monovalent, CD25 alone
T4 construct: also called muCD25
T4 sequence (looked up): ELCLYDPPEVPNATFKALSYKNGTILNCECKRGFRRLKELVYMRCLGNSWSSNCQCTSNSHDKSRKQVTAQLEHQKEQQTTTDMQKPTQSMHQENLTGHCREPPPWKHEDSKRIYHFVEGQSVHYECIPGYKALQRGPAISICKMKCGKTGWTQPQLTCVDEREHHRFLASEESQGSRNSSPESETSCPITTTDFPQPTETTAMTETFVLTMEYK

[5] = target: T5, muCD25 transiently expressed on Expi293 cells (Expi293-muCD25) (mouse, UniProt P01590 22-268); experiment: flow cytometry, biotinylated mouse IL-2 on Expi293 muCD25 cells, streptavidin-PE
T5 construct: whole, on cells; also called murine CD25; single positive CD25+ cells
T5 sequence (looked up): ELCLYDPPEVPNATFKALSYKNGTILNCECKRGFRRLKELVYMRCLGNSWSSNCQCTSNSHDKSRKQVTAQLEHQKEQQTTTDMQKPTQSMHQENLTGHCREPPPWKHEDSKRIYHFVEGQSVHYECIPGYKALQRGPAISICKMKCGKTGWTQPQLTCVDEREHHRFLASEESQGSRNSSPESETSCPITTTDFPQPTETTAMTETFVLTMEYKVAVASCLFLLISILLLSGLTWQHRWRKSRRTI

[6] = target: T6, huCTLA4 (biotinylated human CTLA4 for BLI) (human, UniProt P16410 36-161, limits assumed, biotinylated); experiment: BLI steady state analysis; biotinylated antigen on streptavidin sensor, bispecific 2 µM to 31.25 nM
T6 construct: also called Target 2
T6 sequence (P16410 36-161 limits assumed): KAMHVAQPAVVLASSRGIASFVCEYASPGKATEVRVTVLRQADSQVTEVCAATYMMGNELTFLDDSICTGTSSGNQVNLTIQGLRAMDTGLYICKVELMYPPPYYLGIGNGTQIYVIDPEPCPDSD

[7] = target: T2, mouse CTLA4 (target of muSNIPER and …); experiment: BLI, biotinylated mouse CTLA4 (B-mTarget2) on streptavidin sensor, then antibody or CD86 ligand

T1 sequence (P16410 36-161 limits assumed): as above

B1: bivalent bispecific B-Body “BC1” (bispecific antibody)
chain 1: not shown
chain 2: EVQLVESGGGLVQPGGSLRLSCAASGFTFSDYDIHWVRQAPGKGLEWVGDITPYDGTTNYADSVKGRFTISADTSKNTAYLQMNSLRAEDTAVYYCARLVGEIATGFDYWGQGTLVTVSSASPREPQVYTDPPSRDELTKNQVSLTCLVKGFYPSDIAVEWESNGQPENNYKTTPPVLDSDGSFFLYSKLTVDKSRWQQGNVFSCSVMHEALHNHYTQKSLSLSGEC
chain 3: not shown
chain 4: QVQLVESGGGVVQPGRSLRLDCKASGITFSNSGMHWVRQAPGKGLEWVAVIWYDGSKRYYADSVKGRFTISRDNSKNTLFLQMNSLRAEDTAVYYCATNDDYWGQGTLVTVSSASTKGPSVFPLAPSSKSTSGGTAALGCLVKDYFPEPVTVSWNSGALTSGVHTFPAVLQSSGLYSLSSVVTVPSSSLGTQTYICNVNHKPSNTKVDKKVEPPKSC
notes: A:F site specific for Antigen A, H:L site (nivolumab) specific for human PD1
binding result [1]: no binding

B2: Mouse Surrogate SNIPER antibody (muSNIPER) (bispecific antibody)
chain 1: not shown
chain 2: EVQLVESGGGLVQPGGSLRLSCAASGFTFSSYYIHWVRQAPGKGLEWVASISSYADYTDYADSVKGRFTISADTSKNTAYLQMNSLRAEDTAVYYCARQSYYGLDYWGQGTLVTVSSASPREPQVYTDPPSRDELTKNQVSLTCLVKGFYPSDIAVEWESNGQPENNYKTTPPVLDSDGSFFLYSKLTVDKSRWQQGNVFSCSVMHEALHNHYTQKSLSLSGEC
chain 3: DIQMTQSPSSLSASVGDRVTITCRASQSVSSAVAWYQQKPGKAPKLLIYSASSLYSGVPSRFSGSRSGTDFTLTISSLQPEDFATYYCQQWYTSPLTFGQGTKVEIKRTVAAPSVFIFPPSDEQLKSGTASVVCLLNNFYPREAKVQWKVDNALQSGNSQESVTEQDSKDSTYSLSSTLTLSKADYEKHKVYACEVTHQGLSSPVTKSFNRGECDKTHTCPPCPAPELLGGPSVFLFPPKPKDTLMISRTPEVTCVVVDVSHEDPEVKFNWYVDGVEVHNAKTKPREEQYNSTYRVVSVLTVLHQDWLNGKEYKCKVSNKALPAPIEKTISKAKGQPREPQVCTLPPSREEMTKNQVSLSCAVKGFYPSDIAVEWESNGQPENNYKTTPPVLDSDGSFFLVSKLTVDKSRWQQGNVFSCSVMHEALHNHYTQKSLSLSPGK
chain 4: EVQLVESGGGLVQPGGSLRLSCAASGFTFRQYFIHWVRQAPGKGLEWVAAIHPDSDFTYYADSVKGRFTISADTSKNTAYLQMNSLRAEDTAVYYCARGGVAIESGYALDYWGQGTLVTVSSASTKGPSVFPLAPSSKSTSGGTAALGCLVKDYFPEPVTVSWNSGALTSGVHTFPAVLQSSGLYSLSSVVTVPSSSLGTQTYICNVNHKPSNTKVDKKVEPPKSC
notes: Chains 1 and 2 form the CTLA4 arm, chains 3 and 4 the CD25 arm; BC1 scaffold; also called mSNIPER; muSINPER
Kd [2]: > 0.1 µM | Kd [3]: < 0.005 µM | Kd [4]: > 0.3 µM

B3: biotinylated mouse recombinant IL-2 ligand (ligand, UniProt P04351 21-169, looked up)
chain: APTSSSTSSSTAEAQQQQQQQQQQQQHLEQLLMDLQELLSRMENYRNLKLPRMLTFKFYLPKQATELKDLQCLEDELGPLRHVLDLTQSKSFQLEDAENFISNIRVTVVKLKGSDNTFECQFDDESATVVDFLRRWIAFCQSIISTSPQ
modifications: biotinylated
binding result [5]: binds

B4: BC1 1×1 B-Body huSNIPER 19×8 binding molecule (bispecific antibody)
chain 1: not shown
chain 2: EVQLVESGGGLVQPGGSLRLSCAASGFTFSGYWIHWVRQAPGKGLEWVAAITSRDSYTYYADSVKGRFTISADTSKNTAYLQMNSLRAEDTAVYYCARGSYLGSAFDYWGQGTLVTVSSASPREPQVYTDPPSRDELTKNQVSLTCLVKGFYPSDIAVEWESNGQPENNYKTTPPVLDSDGSFFLYSKLTVDKSRWQQGNVFSCSVMHEALHNHYTQKSLSLSGEC
chain 3: SDIQMTQSPSSLSASVGDRVTITCRASQSVSSAVAWYQQKPGKAPKLLIYSASSLYSGVPSRFSGSRSGTDFTLTISSLQPEDFATYYCQQYSSQPATFGQGTKVEIKRTVAAPSVFIFPPSDEQLKSGTASVVCLLNNFYPREAKVQWKVDNALQSGNSQESVTEQDSKDSTYSLSSTLTLSKADYEKHKVYACEVTHQGLSSPVTKSFNRGECDKTHTCPPCPAPELLGGPSVFLFPPKPKDTLMISRTPEVTCVVVDVSHEDPEVKFNWYVDGVEVHNAKTKPREEQYNSTYRVVSVLTVLHQDWLNGKEYKCKVSNKALPAPIEKTISKAKGQPREPQVCTLPPSREEMTKNQVSLSCAVKGFYPSDIAVEWESNGQPENNYKTTPPVLDSDGSFFLVSKLTVDKSRWQQGNVFSCSVMHEALHNHYTQKSLSLSPGK
chain 4: EVQLVESGGGLVQPGGSLRLSCAASGFTFSSYYIHWVRQAPGKGLEWVAKIQPKGGYTYYADSVKGRFTISADTSKNTAYLQMNSLRAEDTAVYYCARSYYYRPHAFDYWGQGTLVTVSSASTKGPSVFPLAPSSKSTSGGTAALGCLVKDYFPEPVTVSWNSGALTSGVHTFPAVLQSSGLYSLSSVVTVPSSSLGTQTYICNVNHKPSNTKVDKKVEPPKSC
Kd [6]: 0.019 µM

B5: anti-muCTLA4, parental bivalent monospecific monoclonal antibody (antibody, IgG1, V domains shown)
VH: EVQLVESGGGLVQPGGSLRLSCAASGFTFSSYYIHWVRQAPGKGLEWVASISSYADYTDYADSVKGRFTISADTSKNTAYLQMNSLRAEDTAVYYCARQSYYGLDYWGQGTLVTVSS
VL: DIQMTQSPSSLSASVGDRVTITCRASQSVSSAVAWYQQKPGKAPKLLIYSASSLYSGVPSRFSGSRSGTDFTLTISSLQPEDFATYYCQQLSRGPSTFGQGTKVEIK
notes: Parent antibodies of the discovery campaign are in a human full-length IgG1 format; copies: 2 + 2
binding result [7]: binds

— patent US20220153844A1 (INVENRA, published 2022)
